We go through one molecule from patent publication US20220281969A1 (ANTLERA THERAPEUTICS, published 2022).

For the assay, the target named is T1, recombinant human LRP6-Fc chimera (human, UniProt O75581 20-1370).
T1 construct: extracellular domain; also called human LRP6 chimera; not shown: Fc part of the chimera
T1 sequence (looked up): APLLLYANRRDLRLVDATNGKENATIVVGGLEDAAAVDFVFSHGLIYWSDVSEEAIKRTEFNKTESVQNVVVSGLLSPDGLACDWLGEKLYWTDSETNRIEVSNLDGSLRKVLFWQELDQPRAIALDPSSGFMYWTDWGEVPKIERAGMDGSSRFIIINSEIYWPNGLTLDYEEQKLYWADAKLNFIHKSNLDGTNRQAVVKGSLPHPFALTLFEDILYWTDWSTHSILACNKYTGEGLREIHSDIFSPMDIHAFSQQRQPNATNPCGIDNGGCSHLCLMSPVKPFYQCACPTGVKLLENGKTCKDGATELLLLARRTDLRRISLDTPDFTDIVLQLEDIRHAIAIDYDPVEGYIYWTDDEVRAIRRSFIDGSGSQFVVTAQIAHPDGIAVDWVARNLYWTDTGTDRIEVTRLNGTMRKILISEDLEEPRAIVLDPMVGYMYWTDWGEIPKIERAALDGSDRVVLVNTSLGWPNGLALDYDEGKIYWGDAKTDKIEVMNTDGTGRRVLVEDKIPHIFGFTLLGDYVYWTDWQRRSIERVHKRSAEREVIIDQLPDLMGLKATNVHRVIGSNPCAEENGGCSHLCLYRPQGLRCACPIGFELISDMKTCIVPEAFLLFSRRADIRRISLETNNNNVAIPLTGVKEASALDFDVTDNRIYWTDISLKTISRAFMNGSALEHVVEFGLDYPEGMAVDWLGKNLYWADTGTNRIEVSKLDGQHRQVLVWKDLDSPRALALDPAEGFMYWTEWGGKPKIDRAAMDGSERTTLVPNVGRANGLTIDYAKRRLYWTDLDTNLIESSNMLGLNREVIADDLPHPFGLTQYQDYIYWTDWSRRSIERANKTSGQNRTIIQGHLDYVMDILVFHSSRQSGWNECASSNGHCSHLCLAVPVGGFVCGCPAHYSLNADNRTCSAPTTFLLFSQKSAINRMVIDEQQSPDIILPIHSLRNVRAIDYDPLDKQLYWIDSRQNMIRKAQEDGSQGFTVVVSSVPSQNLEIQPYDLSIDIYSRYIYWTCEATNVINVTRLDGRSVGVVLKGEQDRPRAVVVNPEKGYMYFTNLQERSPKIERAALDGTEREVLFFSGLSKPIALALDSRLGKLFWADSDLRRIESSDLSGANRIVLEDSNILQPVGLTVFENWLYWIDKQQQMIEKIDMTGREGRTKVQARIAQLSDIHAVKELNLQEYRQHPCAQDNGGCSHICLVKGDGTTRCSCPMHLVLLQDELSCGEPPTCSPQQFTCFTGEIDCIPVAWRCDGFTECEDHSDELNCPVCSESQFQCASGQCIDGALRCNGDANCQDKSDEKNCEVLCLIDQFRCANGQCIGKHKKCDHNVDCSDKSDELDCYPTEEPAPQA
The assay can be described thus: single-point ELISA, IgG1 on coated antigen. The protocol: FIGS. 1a and 1b show LRP six antibodies. (A) The amino acid sequences of the complementarity determining regions (CDR) of the heavy (H) and the light (L) chains are presented. The antibodies were grouped into unique epitopes as determined by competitive ELISAs. (B) Single-point ELISAs were performed on 96-well Maxisorb immune plates coated with the […] of mouse LRP5, mouse LRP6 and human LRP6 chimeras. The plates were incubated with the purified Fab or IgG1 at the concentrations indicated followed by incubation with horseradish peroxidase (HRP)-conjugated anti-kappa antibody. The wells were washed eight times followed by incubation with 3,3′,5,5′-tetramethylbenzidine/H₂O₂ peroxidase (TMB) substrate for 5-10 min. The reaction was stopped by adding one M H₃PO₄ and the absorbance was measured spectrometrically at 450 nm in a microtiter plate reader.
The full length IgG1s were purified and a single-point ELISA was done to determine the specificity of the antibodies. […] A multipoint competitive ELISA was used to determine the relative affinities of the antibodies to the recombinant antigen.
In general terms: An ELISA detects its analyte on a solid surface through an enzyme-linked reagent.

B1: LRP6-E3 IgG1 antibody (antibody, V domains shown)
VH: EVQLVESGGGLVQPGGSLRLSCAASGFNLYYYSMHWVRQAPGKGLEWVASIYSSYGYTYYADSVKGRFTISADTSKNTAYLQMNSLRAEDTAVYYCARYAGYYYYPWAYYGWPFSGLDYWGQGTLVTVSS
VL: DIQMTQSPSSLSASVGDRVTITCRASQSVSSAVAWYQQKPGKAPKLLIYSASSLYSGVPSRFSGSRSGTDFTLTISSLQPEDFATYYCQQAGSAPYHLITFGQGTKVEIKR
notes: Tested as purified full length IgG1
Regarding B1, the binding result is on record as “no binding”.
